In PMC8657803, “Structural Insight into the Binding of TGIF1 to SIN3A PAH2 Domain through a C-Terminal Amphipathic Helix” (International Journal of Molecular Sciences, 2021):

Target: T1, TGIF1_(256–401), recombinant truncation covering RD2 (human, UniProt Q15583-1 256-401)
T1 construct: two additional residues left at the N-terminus after thrombin removal of the purification tag; 15N-labelled in the NMR titration; also called TGIF1 RD2 truncation; TGIF1 M256–A401
Test: NMR titration; 0.1 mM 15N-labelled TGIF1 truncation mixed with non-labelled SIN3A PAH2 at molar ratios 1:0 to 1:2; 1H-15N HSQC; 20 mM HEPES, 80 mM NaCl, 2 mM DTT, 0.05% NaN3, pH 6.4, 90% H2O/10% D2O; 293 K (25 °C) as printed
Conditions: both partners purified

T1 sequence (Q15583 other isoform, or with tags, fused parts or gaps): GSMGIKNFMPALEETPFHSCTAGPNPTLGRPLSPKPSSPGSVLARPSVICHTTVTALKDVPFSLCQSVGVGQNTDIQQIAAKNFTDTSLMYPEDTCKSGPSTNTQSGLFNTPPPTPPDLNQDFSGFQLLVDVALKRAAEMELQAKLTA

binding result: binds
B1: SIN3A PAH2 (residues S295–N384), recombinant (domain or fragment, human, UniProt Q96ST3 295-384, looked up)
chain: SLQNNQPVEFNHAINYVNKIKNRFQGQPDIYKAFLEILHTYQKEQRNAKEAGGNYTPALTEQEVYAQVARLFKNQEDLLSEFGQFLPDAN
notes: SIN3A, human, paired amphipathic helix domain 2 (PAH2), residues S295-N384; Non-labelled
